Patent US20130330358

How the values were obtained:
[1] = system: T1, vIRF4^202-216 peptide (vif1); assay: competitive ITC: vIRF4^202-216 titrated into TRAF pre-titrated with p53^350-364 (competitor)
T1 sequence: SVWIPVNEGASTSGM

[2] = system: T1, vIRF4^202-216 peptide (vif1); assay: competitive ITC: vIRF4^202-216 titrated into TRAF pre-titrated with p53^355-369 (competitor)
[3] = system: T1, vIRF4^202-216 peptide (vif1); assay: competitive ITC: vIRF4^202-216 titrated into TRAF pre-titrated with MDM2^137-152 (competitor)

HAUSP TRAF domain (HAUSP^62-205), sequence (Q93009 62-205): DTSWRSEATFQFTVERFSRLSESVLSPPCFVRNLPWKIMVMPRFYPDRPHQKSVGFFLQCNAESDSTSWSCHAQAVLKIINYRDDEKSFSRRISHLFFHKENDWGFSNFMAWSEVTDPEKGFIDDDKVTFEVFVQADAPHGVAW

Substance: HAUSP TRAF domain (HAUSP^62-205)
- Kobs (observed association constant) [1]: 4.42e+07 M⁻¹
- Kobs (observed association constant) [2]: 3.58e+07 M⁻¹
- Kobs (observed association constant) [3]: 1.09e+07 M⁻¹
